For this series the following is noted: Hordeum vulgare; pH 6.3; 25 °C; GdnHCl; Fluorescence; MES 50 mM; whole UniProt chain shown.

B1: Subtilisin-chymotrypsin inhibitor-2A wild type, P01053 (protein)
chain: MSSVEKKPEGVNTGAGDRHNLKTEWPELVGKSVEEAKKVILQDKPEAQIIVLPVGTIVTMEYRIDRVRLFVDKLDNIAQVPRVG
With B1, the denaturant m value was determined as 1.9 kcal/mol/M and the “denaturant midpoint (higher = more stable)” value amounted to 4 M.

The record behind these values is FireProtDB (doi:10.1021/bi00017a003).
